“And” between values parts separate entries of the source, which are not always exact repeats. Identical values can stand only once. Like-named read-outs stand apart in the source and are kept apart here.
How the values were obtained:
[1] = target: cynomolgus monkey IL4Rα-his protein (cynomolgus monkey); experiment: indirect ELISA on coated cynomolgus IL4Rα-his
[2] = target: human IL4Rα expressed on 293F-IL4Rα cells (human) (UniProt P24394); experiment: flow cytometry on 293F-IL4Rα cells, blocked ligand biotin human IL4
[3] = target: recombinant human IL4Rα-his protein (in house made) (human) (UniProt P24394); experiment: capture ELISA: antibody captured on anti-IgG Fc plate, biotin human IL4Rα-his detected
[4] = target: recombinant human IL4Rα-his protein (in house made) (human) (UniProt P24394); experiment: as above; remark: listed apart in the source
[5] = target: recombinant human IL4Rα-his protein (in house made) (human) (UniProt P24394); experiment: competitive ELISA, blocks biotin-IL4Rα-his binding to coated Benchmark (self-competition)
[6] = target: recombinant human IL4Rα-his protein (in house made) (human) (UniProt P24394); experiment: competitive ELISA: coated human IL4Rα-his, blocked ligand biotin human IL4
[7] = target: human IL4Rα expressed on 293F-IL4Rα cells (human) (UniProt P24394); experiment: flow cytometry on 293F-IL4Rα cells, blocked ligand biotin human IL4; remark: listed apart in the source
[8] = target: human IL4Rα expressed on HEK293T-IL4Rα-STAT6-STAT6LUC-LB2 cells (human) (UniProt P24394); experiment: cell-based or functional assay
[9] = target: marmoset monkey IL4Rα-his protein (marmoset monkey); experiment: indirect ELISA on coated cal-IL4Rα-his
Sequence of marmoset monkey IL4Rα-his protein (marmoset monkey) (chain, as listed by the source limits assumed): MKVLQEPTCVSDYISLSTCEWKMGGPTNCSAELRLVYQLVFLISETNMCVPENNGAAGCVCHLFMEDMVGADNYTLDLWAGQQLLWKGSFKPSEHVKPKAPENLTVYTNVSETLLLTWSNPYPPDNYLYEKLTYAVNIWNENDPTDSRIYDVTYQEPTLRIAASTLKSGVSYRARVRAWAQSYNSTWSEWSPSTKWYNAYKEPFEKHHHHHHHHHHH

[10] = target: recombinant human IL4Rα-his protein (in house made) (human) (UniProt P24394); experiment: competitive ELISA: coated human IL4Rα-his, blocked ligand biotin human IL4; remark: listed apart in the source
[11] = target: recombinant human IL4Rα-his protein (in house made) (human) (UniProt P24394); experiment: as above; remark: listed apart in the source
[12] = target: recombinant human IL4Rα-his protein (in house made) (human) (UniProt P24394); experiment: capture ELISA: antibody captured on anti-IgG Fc plate, biotin human IL4Rα-his detected; remark: listed apart in the source
[13] = target: recombinant human IL4Rα-his protein (in house made) (human) (UniProt P24394); experiment: SPR (Biacore), antibody captured, IL4Rα-his flowed
[14] = target: recombinant human IL4Rα-his protein (in house made) (human) (UniProt P24394); experiment: competitive ELISA: antibody mixed with biotin human IL4Rα-his, competitor plate-coated Benchmark
[15] = target: recombinant human IL4Rα-his protein (in house made) (human) (UniProt P24394); experiment: SPR (Biacore), antibody captured, IL4Rα-his flowed; remark: listed apart in the source
[16] = target: cynomolgus monkey IL4Rα-his protein (cynomolgus monkey); experiment: indirect ELISA on coated cynomolgus IL4Rα-his; remark: listed apart in the source
[17] = target: marmoset monkey IL4Rα-his protein (marmoset monkey); experiment: indirect ELISA, coated cal-IL4Rα-his
[18] = target: recombinant human IL4Rα-his protein (in house made) (human) (UniProt P24394); experiment: competitive ELISA, blocks biotin-IL4 binding to coated IL4Rα-his
[19] = target: recombinant human IL4Rα-his protein (in house made) (human) (UniProt P24394); experiment: SPR (Biacore), antibody captured, IL4Rα-his flowed; remark: listed apart in the source
[20] = target: marmoset monkey IL4Rα-his protein (marmoset monkey); experiment: indirect ELISA on coated cal-IL4Rα-his; remark: listed apart in the source
[21] = target: recombinant human IL4Rα-his protein (in house made) (human) (UniProt P24394); experiment: competitive ELISA: coated human IL4Rα-his, blocked ligand biotin human IL4; remark: listed apart in the source
[22] = target: human IL4Rα expressed on HEK293T-IL4Rα-STAT6-STAT6LUC-LB2 cells (human) (UniProt P24394); experiment: cell-based or functional assay; remark: listed apart in the source
[23] = target: cynomolgus monkey IL4Rα-his protein (cynomolgus monkey); experiment: indirect ELISA, coated cyno IL4Rα-his
[24] = target: recombinant human IL4Rα-his protein (in house made) (human) (UniProt P24394); experiment: competitive ELISA: antibody mixed with biotin human IL4Rα-his, competitor plate-coated Benchmark; remark: listed apart in the source
[25] = target: recombinant human IL4Rα-his protein (in house made) (human) (UniProt P24394); experiment: capture ELISA: antibody captured on anti-IgG Fc plate, biotin human IL4Rα-his detected; remark: listed apart in the source
[26] = target: cynomolgus monkey IL4Rα-his protein (cynomolgus monkey); experiment: indirect ELISA, coated cyno IL4Rα-his; remark: listed apart in the source
[27] = target: human IL4Rα expressed on 293F-IL4Rα cells (human) (UniProt P24394); experiment: flow cytometry, 293F-IL4Rα cells
[28] = target: recombinant human IL4Rα-his protein (in house made) (human) (UniProt P24394); experiment: capture ELISA, biotin-IL4Rα-his
[29] = target: cynomolgus monkey IL4Rα-his protein (cynomolgus monkey); experiment: indirect ELISA on coated cynomolgus IL4Rα-his; remark: listed apart in the source
[30] = target: human IL4Rα expressed on 293F-IL4Rα cells (human) (UniProt P24394); experiment: flow cytometry on 293F-IL4Rα cells
[31] = target: human IL4Rα expressed on 293F-IL4Rα cells (human) (UniProt P24394); experiment: flow cytometry, blocks biotin-IL4 binding to 293F-IL4Rα cells
[32] = target: recombinant human IL4Rα-his protein (in house made) (human) (UniProt P24394); experiment: competitive ELISA: antibody mixed with biotin human IL4Rα-his, competitor plate-coated Benchmark; remark: listed apart in the source
[33] = target: recombinant human IL4Rα-his protein (in house made) (human) (UniProt P24394); experiment: competitive ELISA, blocks biotin-IL4 binding to coated IL4Rα-his; remark: listed apart in the source
[34] = target: human IL4Rα expressed on 293F-IL4Rα cells (human) (UniProt P24394); experiment: flow cytometry on 293F-IL4Rα cells, blocked ligand biotin human IL4; remark: listed apart in the source
[35] = target: human IL4Rα expressed on 293F-IL4Rα cells (human) (UniProt P24394); experiment: flow cytometry, 293F-IL4Rα cells; remark: listed apart in the source
[36] = target: human IL4Rα expressed on 293F-IL4Rα cells (human) (UniProt P24394); experiment: flow cytometry on 293F-IL4Rα cells, blocked ligand biotin human IL4; remark: listed apart in the source
[37] = target: recombinant human IL4Rα-his protein (in house made) (human) (UniProt P24394); experiment: competitive ELISA: antibody mixed with biotin human IL4Rα-his, competitor plate-coated Benchmark; remark: listed apart in the source
[38] = target: human IL4Rα expressed on 293F-IL4Rα cells (human) (UniProt P24394); experiment: flow cytometry on 293F-IL4Rα cells; remark: listed apart in the source
[39] = target: recombinant human IL4Rα-his protein (in house made) (human) (UniProt P24394); experiment: capture ELISA: antibody captured on anti-IgG Fc plate, biotin human IL4Rα-his detected; remark: listed apart in the source
[40] = target: human IL4Rα expressed on 293F-IL4Rα cells (human) (UniProt P24394); experiment: flow cytometry on 293F-IL4Rα cells; remark: listed apart in the source
[41] = target: human IL4Rα expressed on 293F-IL4Rα cells (human) (UniProt P24394); experiment: flow cytometry, blocks biotin-IL4 binding to 293F-IL4Rα cells; remark: listed apart in the source
[42] = target: human IL4Rα expressed on HEK293T-IL4Rα-STAT6-STAT6LUC-LB2 cells (human) (UniProt P24394); experiment: cell-based or functional assay; remark: listed apart in the source
[43] = target: recombinant human IL4Rα-his protein (in house made) (human) (UniProt P24394); experiment: competitive ELISA, blocks biotin-IL4Rα-his binding to coated Benchmark (self-competition); remark: listed apart in the source
[44] = target: human IL4Rα expressed on 293F-IL4Rα cells (human) (UniProt P24394); experiment: flow cytometry on 293F-IL4Rα cells; remark: listed apart in the source
[45] = target: recombinant human IL4Rα-his protein (in house made) (human) (UniProt P24394); experiment: SPR (Biacore), antibody captured, IL4Rα-his flowed; remark: listed apart in the source
[46] = target: human IL4Rα expressed on 293F-IL4Rα cells (human) (UniProt P24394); experiment: flow cytometry on 293F-IL4Rα cells; remark: listed apart in the source
[47] = target: recombinant human IL4Rα-his protein (in house made) (human) (UniProt P24394); experiment: SPR (Biacore), antibody captured, IL4Rα-his flowed; remark: listed apart in the source
[48] = target: human IL4Rα expressed on 293F-IL4Rα cells (human) (UniProt P24394); experiment: flow cytometry, 293F-IL4Rα cells; remark: listed apart in the source
[49] = target: recombinant human IL4Rα-his protein (in house made) (human) (UniProt P24394); experiment: capture ELISA: antibody captured on anti-IgG Fc plate, biotin human IL4Rα-his detected; remark: listed apart in the source
[50] = target: recombinant human IL4Rα-his protein (in house made) (human) (UniProt P24394); experiment: competitive ELISA: coated human IL4Rα-his, blocked ligand biotin human IL4; remark: listed apart in the source
[51] = target: human IL4Rα expressed on 293F-IL4Rα cells (human) (UniProt P24394); experiment: flow cytometry on 293F-IL4Rα cells; remark: listed apart in the source
[52] = target: recombinant human IL4Rα-his protein (in house made) (human) (UniProt P24394); experiment: competitive ELISA, blocks biotin-IL4 binding to coated IL4Rα-his; remark: listed apart in the source
[53] = target: human IL4Rα expressed on 293F-IL4Rα cells (human) (UniProt P24394); experiment: flow cytometry on 293F-IL4Rα cells, blocked ligand biotin human IL4; remark: listed apart in the source
[54] = target: human IL4Rα expressed on 293F-IL4Rα cells (human) (UniProt P24394); experiment: flow cytometry on 293F-IL4Rα cells; remark: listed apart in the source

Sequence of cynomolgus monkey IL4Rα-his protein (cynomolgus monkey) (chain, as listed by the source): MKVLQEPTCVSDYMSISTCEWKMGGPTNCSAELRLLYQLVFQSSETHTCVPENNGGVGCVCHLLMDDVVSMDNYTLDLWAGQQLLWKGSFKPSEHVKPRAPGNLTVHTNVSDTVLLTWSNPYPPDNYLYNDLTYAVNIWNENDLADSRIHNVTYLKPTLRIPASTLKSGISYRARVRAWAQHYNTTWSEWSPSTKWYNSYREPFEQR

- EC50 [1]: 0.954 nM
- IC50 [2]: 0.505 nM
- EC50 [3]: 0.0505 nM
- EC50 [4]: 0.0485 nM
- IC50 [5]: 0.02 nM
- IC50 [6]: 0.269 nM
- IC50 [7]: 0.421 nM
- Inhibition on IL4 induced STAT6 phosphorylation (IC50, nM) [8]: 0.37 nM
- Inhibition on IL13 induced STAT6 phosphorylation (IC50, nM) [8]: 0.48 nM
- EC50 [9]: 1.84 nM
- IC50 [10]: 1.56 nM
- IC50 [11]: 2.06 nM
- EC50 [12]: 0.0284 nM
- Kd [13]: 0.444 nM
- koff [13]: 0.00033 s⁻¹
- kon [13]: 742000 M⁻¹ s⁻¹
- IC50 [14]: 0.0235 nM
- Kd [15]: 0.746 nM
- EC50 [16]: 0.674 nM
- EC50 [17]: 1.72 nM and 1.84 nM
- IC50 [18]: 0.68 nM
- Dissociation % [19]: -2.64%
- End (RU) [19]: 70 RU
- Kd [19]: 0.188 nM
- Start (RU) [19]: 71.9 RU
- koff [19]: 6.25e-05 s⁻¹
- kon [19]: 333000 M⁻¹ s⁻¹
- EC50 [20]: 1.72 nM
- IC50 [21]: 0.682 nM
- Inhibition on IL4 induced STAT6 phosphorylation (IC50, nM) [22]: 0.28 nM
- Inhibition on IL13 induced STAT6 phosphorylation (IC50, nM) [22]: 0.53 nM
- EC50 [23]: 0.95 nM
- IC50 [24]: 0.132 nM
- EC50 [25]: 0.0228 nM
- EC50 [26]: 0.67 nM and 3.34 nM
- EC50 [27]: 0.08 nM
- EC50 [28]: 0.05 nM
- EC50 [29]: 3.33 nM
- EC50 [30]: 0.254 nM
- IC50 [31]: 0.42 nM and 0.51 nM
- IC50 [32]: 0.189 nM
- IC50 [33]: 2.06 nM
- IC50 [34]: 0.313 nM
- EC50 [35]: 0.46 nM
- IC50 [36]: 0.302 nM
- IC50 [37]: 0.0158 nM
- EC50 [38]: 0.462 nM
- EC50 [39]: 0.0517 nM
- EC50 [40]: 0.128 nM
- IC50 [41]: 0.22 nM
- Inhibition on IL4 induced STAT6 phosphorylation (IC50, nM) [42]: 0.7 nM
- Inhibition on IL13 induced STAT6 phosphorylation (IC50, nM) [42]: 0.84 nM
- IC50 [43]: 0.19 nM and 0.13 nM
- EC50 [44]: 0.397 nM
- Kd [45]: 0.466 nM
- EC50 [46]: 0.526 nM
- Kd [47]: 0.17 nM
- koff [47]: 3.77e-05 s⁻¹
- kon [47]: 222000 M⁻¹ s⁻¹
- EC50 [48]: 0.4 nM and 0.53 nM
- EC50 [49]: 0.0479 nM
- IC50 [50]: 1.74 nM
- EC50 [51]: 0.134 nM
- IC50 [52]: 1.74 nM and 1.56 nM
- IC50 [53]: 0.22 nM
- EC50 [54]: 0.0816 nM
B1: anti-IL4Rα benchmark (Dupilumab) (antibody, INN chains, looked up, V domains shown)
VH: EVQLVESGGGLEQPGGSLRLSCAGSGFTFRDYAMTWVRQAPGKGLEWVSSISGSGGNTYYADSVKGRFTISRDNSKNTLYLQMNSLRAEDTAVYYCAKDRLSITIRPRYYGLDVWGQGTTVTVSS
VL: DIVMTQSPLSLPVTPGEPASISCRSSQSLLYSIGYNYLDWYLQKSGQSPQLLIYLGSNRASGVPDRFSGSGSGTDFTLKISRVEAEDVGFYYCMQALQTPYTFGQGTKLEIKR

From patent US20230105029A1
